Reference: patent US20140221622A1

Target: biotin-labeled cMet (UniProt P08581)
Test: indirect ELISA: antibody captured on anti-IgG Fc coated plate, biotin-labeled cMet detected with streptavidin-HRP, OD450; fit value of a flat control curve, unit taken from the axis

Sequence of biotin-labeled cMet (P08581 25-932 limits assumed): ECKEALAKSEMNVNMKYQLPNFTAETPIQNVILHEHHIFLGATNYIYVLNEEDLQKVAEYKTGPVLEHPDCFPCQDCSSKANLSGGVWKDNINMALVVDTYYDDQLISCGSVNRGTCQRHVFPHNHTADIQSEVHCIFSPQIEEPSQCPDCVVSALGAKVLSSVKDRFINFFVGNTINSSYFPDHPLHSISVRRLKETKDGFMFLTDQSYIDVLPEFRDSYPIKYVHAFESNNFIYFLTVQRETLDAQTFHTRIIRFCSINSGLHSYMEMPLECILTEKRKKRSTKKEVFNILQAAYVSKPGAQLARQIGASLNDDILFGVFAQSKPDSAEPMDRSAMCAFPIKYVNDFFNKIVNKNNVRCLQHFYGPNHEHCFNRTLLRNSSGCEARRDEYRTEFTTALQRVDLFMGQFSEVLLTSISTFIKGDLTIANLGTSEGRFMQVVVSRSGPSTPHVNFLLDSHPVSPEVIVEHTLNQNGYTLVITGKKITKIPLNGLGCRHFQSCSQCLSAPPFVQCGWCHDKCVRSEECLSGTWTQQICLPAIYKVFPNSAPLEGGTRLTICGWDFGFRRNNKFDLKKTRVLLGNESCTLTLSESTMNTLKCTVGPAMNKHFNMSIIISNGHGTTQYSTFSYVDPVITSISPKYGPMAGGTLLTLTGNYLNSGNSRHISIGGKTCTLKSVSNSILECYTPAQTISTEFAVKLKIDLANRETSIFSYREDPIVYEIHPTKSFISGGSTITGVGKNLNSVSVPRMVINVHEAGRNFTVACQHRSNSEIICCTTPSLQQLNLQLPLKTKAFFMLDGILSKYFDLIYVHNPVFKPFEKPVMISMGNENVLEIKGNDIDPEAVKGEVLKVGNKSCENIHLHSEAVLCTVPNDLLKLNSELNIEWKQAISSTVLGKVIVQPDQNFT

IL-1β (antibody) was tested, and the IC50 was 1.1 nM.
